Biological target: yeast RPA (yRPA, ScRPA) (Saccharomyces cerevisiae, UniProt P22336;P26754;P26755 1-621;1-273;1-122)
Experiment: DEER

Chain of yeast RPA (yRPA, ScRPA) (P22336 whole entry, chain 1 of 3): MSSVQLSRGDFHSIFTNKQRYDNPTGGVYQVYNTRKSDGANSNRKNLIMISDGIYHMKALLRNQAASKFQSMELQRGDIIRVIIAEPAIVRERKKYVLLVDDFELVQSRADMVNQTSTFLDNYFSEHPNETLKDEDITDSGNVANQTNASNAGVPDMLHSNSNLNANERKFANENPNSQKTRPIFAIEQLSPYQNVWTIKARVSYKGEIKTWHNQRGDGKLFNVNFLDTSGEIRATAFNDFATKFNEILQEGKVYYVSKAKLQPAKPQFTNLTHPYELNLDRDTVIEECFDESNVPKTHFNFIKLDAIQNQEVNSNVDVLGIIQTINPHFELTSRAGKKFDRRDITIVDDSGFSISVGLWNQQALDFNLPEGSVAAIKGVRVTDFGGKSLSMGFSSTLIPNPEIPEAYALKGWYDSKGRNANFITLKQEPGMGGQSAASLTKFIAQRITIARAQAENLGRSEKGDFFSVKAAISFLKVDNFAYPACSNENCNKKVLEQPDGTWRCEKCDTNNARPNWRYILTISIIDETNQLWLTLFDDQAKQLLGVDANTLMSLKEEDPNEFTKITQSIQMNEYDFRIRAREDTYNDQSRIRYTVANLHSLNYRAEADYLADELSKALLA
Chain of yeast RPA (yRPA, ScRPA) (P26754 whole entry, chain 2 of 3): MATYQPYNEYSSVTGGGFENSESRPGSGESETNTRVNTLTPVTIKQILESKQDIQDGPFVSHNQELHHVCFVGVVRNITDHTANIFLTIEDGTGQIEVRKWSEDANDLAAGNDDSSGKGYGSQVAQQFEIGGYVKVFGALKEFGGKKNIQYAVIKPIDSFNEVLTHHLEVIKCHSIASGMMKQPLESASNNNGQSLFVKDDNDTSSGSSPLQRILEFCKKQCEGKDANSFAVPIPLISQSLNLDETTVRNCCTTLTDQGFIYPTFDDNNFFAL
Chain of yeast RPA (yRPA, ScRPA) (P26755 whole entry, chain 3 of 3): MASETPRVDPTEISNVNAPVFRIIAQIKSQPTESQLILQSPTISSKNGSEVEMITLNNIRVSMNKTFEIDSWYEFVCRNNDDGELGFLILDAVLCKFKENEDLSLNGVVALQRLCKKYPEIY

B1: (dT)22 DEER (ssDNA)
DNA: UTTTTTTTTTTTTTTTTTTTTTTUT
modifications: M = 2'-aminouridine spin-labelled with isoindoline nitroxide, at the two U positions (1 and 24)
B1: binds.
